Experimental data as given in patent US20250034245A1 (published 2025).

Target: full-length human Siglec-8 (Siglec-8^FL) (human, UniProt Q9NYZ4 17-499)
Assay: BLI

full-length human Siglec-8 (Siglec-8^FL), sequence (Q9NYZ4 17-499): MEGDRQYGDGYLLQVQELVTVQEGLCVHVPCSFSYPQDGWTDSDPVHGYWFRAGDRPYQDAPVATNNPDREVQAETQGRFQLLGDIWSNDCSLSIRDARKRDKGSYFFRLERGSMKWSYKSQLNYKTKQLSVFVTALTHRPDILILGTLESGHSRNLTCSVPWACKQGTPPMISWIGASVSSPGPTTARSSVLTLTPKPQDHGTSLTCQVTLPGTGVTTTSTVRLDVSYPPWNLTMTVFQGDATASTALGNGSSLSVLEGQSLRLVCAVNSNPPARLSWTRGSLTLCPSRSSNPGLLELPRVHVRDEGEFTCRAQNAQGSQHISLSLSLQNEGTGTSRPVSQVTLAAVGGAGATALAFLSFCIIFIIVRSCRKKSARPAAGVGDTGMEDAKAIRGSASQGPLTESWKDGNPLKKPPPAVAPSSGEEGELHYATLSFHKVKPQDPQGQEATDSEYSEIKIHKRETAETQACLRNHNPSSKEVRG

B1: S8-ATX2F10 (antibody, V domains shown)
VH: EVQLVESGGDLVKSGGSLRLSCAASGFTFSDAWMSWVRQAPGKGLEWVGRIQSKTDGGTTDYVAPVKGRFTISRDDSKDTLYLHMNSLTTEDTAVYYCTTDLYYYGSGSYFLGQGTLVTVSS
VL: DIQMTQSPSSLSASVGDRVTITCRASQNIITYLNWYQQKPGKAPKLLIYAASSLQSGVPSRFSGSGSGTDFTLTISSLQPEDFAIYHCQQSYNVPTTFGQGTKLEIK
Kd: 100 nM

B2: S8-ATX2A3 (antibody, V domains shown)
VH: QVQLQESGPGLVKPSETLSLTCTVSGASISGYYWNWIRQPPGKGLEWIGYIHYSGTTNYNPSLKSRITISLDTSENQFSLRLSSVTAADTAVYYCARDWYTGYDWEGFDYWGQGTLVTVSS
VL: QSVLTQPPSVSGAPGQRVSFSCTGTSSNIGTGFDVHWYRQLPGTAPKVLIYNNNNRPSGVPDRFSASKSGTSASLAITGLQAEDEADYYCQSYDSSLSGSVFGGGTRLTVL
Kd: < 0.001 nM

B3: S8-ATX2G9 (antibody, V domains shown)
VH: EVQLVESGGGVVRPGGSLRLSCAASGFTFDDYGMSWVRQAPGKGLEWVSGINWNGGSTGYADSVKGRFSISRDNAKNSLYLQMNSLRAEDTALYYCAREGITILRGVIIEDWYFDLWGRGTLVIVSS
VL: not shown
Kd: 0.00413 nM

B4: S8-ATX1B6 (antibody, V domains shown)
VH: QVQLVESGGGVVLPGRSLRLSCAASGFTFNIYGMHWVRQAPGKGLEWVAVISYDGNNKEYADSVKGRFTISRDSSRNTLYLQMNSLRAEDTAVYYCAKRGYGSSSLEFWGQGTLVTVSS
VL: DIQMTQSPSSLSASVGDRVTITCRSSQDIRNDLGWYQQKPGKAPKRLIYASSNLQSGVPSRFSGSGSGTEFTLTISSLQPDDFATYYCLQHNTYPYTFGQGTKLEIK
Kd: 0.00219 nM

B5: S8-ATX1E2 (antibody, V domains shown)
VH: EVQLVESGGGLVKPGESLRLSCAASGFTFSNAWMSWVRQAPGKGLEWVGRDGGARDYAAPVKGRFTISRDDSKNTLYLQMNTLKTEDTAVYYCTKGAFFFDYWGQGTLVTVSS
VL: EIVLTQSPGTLSLSPGERATLSCRASQSVISGYLAWYQQKPGQAPRLLIYGASRRATGITDRFSGSGSGTDFTLIISRLEPEDSAVYYCQQYDSSPRTFGQGTKVEIK
Kd: 0.655 nM

B6: S8-ATX1E4 (antibody, V domains shown)
VH: QVQLVQSGSELKKPGASVKVSCKTSGYTFTSYAMNWVRQAPGQGLEWMGWINTNTGNPTYAQGFRGRFVFSLDTSVSTAYLQISSLKAEDTAVYYCARDKYSSSWYWFDSWGQGTLVTVSS
VL: DIQMTQSPSSLSASVGDRVTITCRPSQNISSYLNWYQQKPGKAPKLLIYAASSLRSGVPSRFSGSGSGTDFTLTVSSLQPEDFANYYCQQSYSTPYTFGRGTKLEIK
Kd: 0.917 nM

B7: S8-ATX1E1 (antibody, V domains shown)
VH: EVQLVESGGGLVQPGRSLRLSCAASGFMFDDYVMHWVRQAPGKGLEWVSGINWNSDNIGYADSVKGRFTISRDNAKNSLFLQMNSLRVEDTALYYCAKDIDAAAFDYWGQGTLVTVSS
VL: DIVMTQSPLSLPVTPGEPASISCRSSQSLLHSNGYSYLAWYLQKPGQSPQLLIYLVSNRASGVPDRFTGSGSGTDFTLKISRVEAEDVGVYYCMQALQTPWTFGQGTKVEIK
Kd: 0.589 nM

B8: S8-ATX2B11 (antibody, V domains shown)
VH: EVQLVESGGGVVRPGGSLRLSCAASGFTLDDYGMSWVRQAPGKGLEWVSGINWNGATTDYADSVKGRFSISRDNAKNSVYLQMNSLRAEDTALYYCAREGITMVRGVIIEDWYFDLWGRGTLVTVSS
VL: not shown
Kd: 10 nM

B9: S8-ATX1H4 (antibody, V domains shown)
VH: QVQLVQSGTEVKYPGASVKVSCKASGYTFIDYGISWVRQAPGQGLEWMGWISAYNGNTDYAQKLQGRVTMTTDTSTSTAYMDLRSLRSDDTAVYYCAREGEGYCTYGVCPSFDYWGQGTLVTVSS
VL: EIVLTQSPGTLSLSPGERATLSCRASQSVSSSYLAWYQQKPGQAPRLLIYGASTRGTGIPDRFSGSGSGTDFTLTISRLEPEDFALYYCQQYGSSPYTFGQGTKLEIK
Kd: < 0.001 nM

B10: S8-ATX1B4 (antibody, V domains shown)
VH: QVQLVESGGGVVQPGRSLRLSCAASGFTFSIYGMHWVRQAPGKGLEWVAVISYDGNNKDYTDSVKGRFTISRDNSKNTLYLQMNSLTAEDTAVYYCAKRGYGSSSLEFWGQGTLVTVSS
VL: DIQMTQSPSSLSASVGDRVTITCRASQDIRNDLGWYQQKPGKAPKRLIYATSSLQSGVPSRFSGSRSGAEFTLTVSSLQPEDFATYYCLQHNTYPYTFGQGTKLEIK
Kd: 0.502 nM
